Test results reported in IntAct's records for PubMed 32453716.

B1: TOG array regulator of axonemal microtubules protein 1 (Homo sapiens), Q9Y4F4 (parent)
chain: MAAAPSALLLLPPFPVLSTYRLQSRSRPSAPETDDSRVGGIMRGEKNYYFRGAAGDHGSCPTTTSPLASALLMPSEAVSSSWSESGGGLSGGDEEDTRLLQLLRTARDPSEAFQALQAALPRRGGRLGFPRRKEALYRALGRVLVEGGSDEKRLCLQLLSDVLRGQGEAGQLEEAFSLALLPQLVVSLREENPALRKDALQILHICLKRSPGEVLRTLIQQGLESTDARLRASTALLLPILLTTEDLLLGLDLTEVIISLARKLGDQETEEESETAFSALQQIGERLGQDRFQSYISRLPSALRRHYNRRLESQFGSQVPYYLELEASGFPEDPLPCAVTLSNSNLKFGIIPQELHSRLLDQEDYKNRTQAVEELKQVLGKFNPSSTPHSSLVGFISLLYNLLDDSNFKVVHGTLEVLHLLVIRLGEQVQQFLGPVIAASVKVLADNKLVIKQEYMKIFLKLMKEVGPQQVLCLLLEHLKHKHSRVREEVVNICICSLLTYPSEDFDLPKLSFDLAPALVDSKRRVRQAALEAFAVLASSMGSGKTSILFKAVDTVELQDNGDGVMNAVQARLARKTLPRLTEQGFVEYAVLMPSSAGGRSNHLAHGADTDWLLAGNRTQSAHCHCGDHVRDSMHIYGSYSPTICTRRVLSAGKGKNKLPWENEQPGIMGENQTSTSKDIEQFSTYDFIPSAKLKLSQGMPVNDDLCFSRKRVSRNLFQNSRDFNPDCLPLCAAGTTGTHQTNLSGKCAQLGFSQICGKTGSVGSDLQFLGTTSSHQEKVYASLNFGSKTQQTFGSQTECTSSNGQNPSPGAYILPSYPVSSPRTSPKHTSPLIISPKKSQDNSVNFSNSWPLKSFEGLSKPSPQKKLVSQKSSDPTGRNHGENSQEKPPVQLTPALVRSPSSRRGLNGTKPVPPIPRGISLLPDKADLSTVGHKKKEPDDIWKCEKDSLPIDLSELNFKDKDLDQEEMHSSLRSLRNSAAKKRAKLSGSTSDLESPDSAMKLDLTMDSPSLSSSPNINSYSESGVYSQESLTSSLSTTPQGKRIMSDIFPTFGSKPCPTRLSSAKKKISHIAEQSPSAGSSSNPQQISSFDFTTTKALSEDSVVVVGKGVFGSLSSAPATCSQSVISSVENGDTFSIKQSIEPPSGIYGRSVQQNISSYLDVENEKDAKVSISKSTYNKMRQKRKEEKELFHNKDCEKKEKNSWERMRHTGTEKMASESETPTGAISQYKERMPSVTHSPEIMDLSELRPFSKPEIALTEALRLLADEDWEKKIEGLNFIRCLAAFHSEILNTKLHETNFAVVQEVKNLRSGVSRAAVVCLSDLFTYLKKSMDQELDTTVKVLLHKAGESNTFIREDVDKALRAMVNNVTPARAVVSLINGGQRYYGRKMLFFMMCHPNFEKMLEKYVPSKDLPYIKDSVRNLQQKGLGEIPLDTPSAKGRRSHTGSVGNTRSSSVSRDAFNSAERAVTEVREVTRKSVPRNSLESAEYLKLITGLLNAKDFRDRINGIKQLLSDTENNQDLVVGNIVKIFDAFKSRLHDSNSKVNLVALETMHKMIPLLRDHLSPIINMLIPAIVDNNLNSKNPGIYAAATNVVQALSQHVDNYLLLQPFCTKAQFLNGKAKQDMTEKLADIVTELYQRKPHATEQKVLVVLWHLLGNMTNSGSLPGAGGNIRTATAKLSKALFAQMGQNLLNQAASQPPHIKKSLEELLDMTILNEL
partner: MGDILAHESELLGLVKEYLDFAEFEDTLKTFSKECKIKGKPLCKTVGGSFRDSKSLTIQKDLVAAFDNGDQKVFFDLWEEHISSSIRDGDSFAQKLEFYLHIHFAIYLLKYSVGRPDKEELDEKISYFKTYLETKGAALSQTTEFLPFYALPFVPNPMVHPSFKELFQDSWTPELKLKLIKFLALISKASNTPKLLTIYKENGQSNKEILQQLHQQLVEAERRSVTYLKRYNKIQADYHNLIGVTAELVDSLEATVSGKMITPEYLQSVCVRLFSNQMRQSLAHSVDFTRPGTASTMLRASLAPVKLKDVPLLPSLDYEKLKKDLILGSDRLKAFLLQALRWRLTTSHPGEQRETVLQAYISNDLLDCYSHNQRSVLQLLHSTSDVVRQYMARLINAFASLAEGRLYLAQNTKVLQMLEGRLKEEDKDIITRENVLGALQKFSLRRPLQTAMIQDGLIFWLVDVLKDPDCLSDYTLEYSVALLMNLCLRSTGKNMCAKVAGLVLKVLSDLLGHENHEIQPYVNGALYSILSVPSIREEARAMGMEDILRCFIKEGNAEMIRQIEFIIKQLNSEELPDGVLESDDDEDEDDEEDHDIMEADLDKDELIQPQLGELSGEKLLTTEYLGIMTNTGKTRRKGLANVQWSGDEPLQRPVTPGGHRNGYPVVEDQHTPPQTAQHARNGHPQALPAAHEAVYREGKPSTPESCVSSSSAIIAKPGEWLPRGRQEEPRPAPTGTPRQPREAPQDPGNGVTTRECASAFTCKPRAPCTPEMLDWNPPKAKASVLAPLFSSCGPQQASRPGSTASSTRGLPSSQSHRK

Variants of: B1
Conditions: with armc9_human ARMC9, Q7Z3E5

Variant	effect of a mutation on the interaction
L375P	disrupting interaction strength
R1311C	with no effect
R368W	disrupting interaction strength
